T1: biotinylated extracellular domain of human CD123 (SEQ ID NO: 88), Fc and Avi tagged (human, UniProt P26951 19-303, biotinylated with BirA-GST (Avi tag))
T1 construct: also called hCD123
T1 sequence: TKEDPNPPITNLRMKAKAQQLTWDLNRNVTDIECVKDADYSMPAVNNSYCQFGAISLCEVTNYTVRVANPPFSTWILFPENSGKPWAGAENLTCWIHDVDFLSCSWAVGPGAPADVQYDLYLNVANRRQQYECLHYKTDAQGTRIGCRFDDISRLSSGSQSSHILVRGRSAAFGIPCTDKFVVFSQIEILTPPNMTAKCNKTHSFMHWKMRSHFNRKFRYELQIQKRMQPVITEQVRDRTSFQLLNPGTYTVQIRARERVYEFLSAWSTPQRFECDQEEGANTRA

T2: extracellular domain of human CD70 (SEQ ID NO: 89), hCD70-Fc-trimer, ACRO Biosystems (human, UniProt P32970 52-193, chemically biotinylated where the biotinylated form was used)
T2 construct: also called human CD70-Fc-trimer; Bio.CD70
T2 sequence: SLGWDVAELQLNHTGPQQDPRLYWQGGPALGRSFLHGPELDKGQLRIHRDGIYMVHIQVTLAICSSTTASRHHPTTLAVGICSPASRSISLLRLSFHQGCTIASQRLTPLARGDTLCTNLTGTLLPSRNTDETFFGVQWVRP

B1: DARPin® protein #52 (designed binder)
chain: DLGYKLLQAAYDGQLDEVRILLKAGADVNAKDSRGQTPLHYAASIGHLEIVEVLLKAGADVNAKDDHGWTPLHLAAWSGHLEIVEVLLKAGADVNAQDQEGTTPADLAAVQGHQDIAEVLQKAAGSPTPTPTTPTPTPTTPTPTPTGSDLGVKLLLAASRGQLDEVRILLKAGADVNAKDIDEGYTPLHIAAYYGHLEIVEVLLKAGADVNAKDRYGKTPLHLAAISGHLEIVEVLLKAGADVNAQDDKGDTPADLAADYGHQDIAEVLQKAAGSPTPTPTTPTPTPTTPTPTPTGSDLGQKLLEAAWAGQDDEVRELLKAGADVNAKNSRGWTPLHTAAQTGHLEIFEVLLKAGADVNAKDDKGVTPLHLAAALGHLEIVEVLLKAGADVNAQDSWGTTPADLAAKYGHEDIAEVLQKAAGSPTPTPTTPTPTPTTPTPTPTGSDLGKKLLEAARAGQDDEVRELLKAGADVNAKDYFSHTPLHLAARNGHLKIVEVLLKAGADVNAKDFAGKTPLHLAAADGHLEIVEVLLKAGADVNAQDIFGKTPADIAADAGHEDIAEVLQKAA
notes: not shown: N-terminal His-tag
B2: DARPin® protein #36 (designed binder)
chain: DLGVKLLLAASRGQLDEVRILLKAGADVNAKDIDEGYTPLHIAAYYGHLEIVEVLLKAGADVNAKDRYGKTPLHLAAISGHLEIVEVLLKAGADVNAQDDKGDTPADLAADYGHQDIAEVLQKAA
notes: CD33-specific ankyrin repeat domain; not shown: N-terminal His-tag
B3: DARPin® protein #48 (designed binder)
chain: DLGKKLLEAARAGQDDEVRELLKAGADVNAKDYFSHTPLHLAARNGHLKIVEVLLKAGADVNAKDFAGKTPLHLAAADGHLEIVEVLLKAGADVNAQDIFGKTPADIAADAGHEDIAEVLQKAAGSPTPTPTTPTPTPTTPTPTPTGSDLGKKLLEAARAGQDDEVRELLKAGADVNAKDYFSHTPLHLAARNGHLKIVEVLLKAGADVNAKDFAGKTPLHLAAADGHLEIVEVLLKAGADVNAQDIFGKTPADIAADAGHEDIAEVLQKAAGSPTPTPTTPTPTPTTPTPTPTGSDLGKKLLEAALEGQLDEVRELLKAGADVNAKDQEGYTPLHLAAALGHLEIVEVLLKAGADVNAKDSIGRTPLHLAAYKGHLEIVEVLLKAGADVNAQDLLGETPADLAAEQGHQDIAEVLQKAAGSPTPTPTTPTPTPTTPTPTPTGSDLGVKLLLAASRGQLDEVRILLKAGADVNAKDIDEGYTPLHIAAYYGHLEIVEVLLKAGADVNAKDRYGKTPLHLAAISGHLEIVEVLLKAGADVNAQDDKGDTPADLAADYGHQDIAEVLQKAAGSPTPTPTTPTPTPTTPTPTPTGSDLGQKLLEAAWAGQDDEVRELLKAGADVNAKNSRGWTPLHTAAQTGHLEIFEVLLKAGADVNAKDDKGVTPLHLAAALGHLEIVEVLLKAGADVNAQDSWGTTPADLAAKYGHEDIAEVLQKAA
notes: HSA-HSA-CD123-CD33-CD3; not shown: N-terminal His-tag
B4: DARPin® protein #49 (designed binder)
chain: DLGKKLLEAALEGQLDEVRELLKAGADVNAKDQEGYTPLHLAAALGHLEIVEVLLKAGADVNAKDSIGRTPLHLAAYKGHLEIVEVLLKAGADVNAQDLLGETPADLAAEQGHQDIAEVLQKAAGSPTPTPTTPTPTPTTPTPTPTGSDLGVKLLLAASRGQLDEVRILLKAGADVNAKDIDEGYTPLHIAAYYGHLEIVEVLLKAGADVNAKDRYGKTPLHLAAISGHLEIVEVLLKAGADVNAQDDKGDTPADLAADYGHQDIAEVLQKAAGSPTPTPTTPTPTPTTPTPTPTGSDLGQKLLEAAWAGQDDEVRELLKAGADVNAKNSRGWTPLHTAAQTGHLEIFEVLLKAGADVNAKDDKGVTPLHLAAALGHLEIVEVLLKAGADVNAQDSWGTTPADLAAKYGHEDIAEVLQKAAGSPTPTPTTPTPTPTTPTPTPTGSDLGKKLLEAARAGQDDEVRELLKAGADVNAKDYFSHTPLHLAARNGHLKIVEVLLKAGADVNAKDFAGKTPLHLAAADGHLEIVEVLLKAGADVNAQDIFGKTPADIAADAGHEDIAEVLQKAA
notes: CD123-CD33-CD3-HSA; not shown: N-terminal His-tag
B5: DARPin® protein #47 (designed binder)
chain: DLGKKLLEAARAGQDDEVRELLKAGADVNAKDYFSHTPLHLAARNGHLKIVEVLLKAGADVNAKDFAGKTPLHLAAADGHLEIVEVLLKAGADVNAQDIFGKTPADIAADAGHEDIAEVLQKAAGSPTPTPTTPTPTPTTPTPTPTGSDLGKKLLEAALEGQLDEVRELLKAGADVNAKDQEGYTPLHLAAALGHLEIVEVLLKAGADVNAKDSIGRTPLHLAAYKGHLEIVEVLLKAGADVNAQDLLGETPADLAAEQGHQDIAEVLQKAAGSPTPTPTTPTPTPTTPTPTPTGSDLGVKLLLAASRGQLDEVRILLKAGADVNAKDIDEGYTPLHIAAYYGHLEIVEVLLKAGADVNAKDRYGKTPLHLAAISGHLEIVEVLLKAGADVNAQDDKGDTPADLAADYGHQDIAEVLQKAAGSPTPTPTTPTPTPTTPTPTPTGSDLGQKLLEAAWAGQDDEVRELLKAGADVNAKNSRGWTPLHTAAQTGHLEIFEVLLKAGADVNAKDDKGVTPLHLAAALGHLEIVEVLLKAGADVNAQDSWGTTPADLAAKYGHEDIAEVLQKAA
notes: HSA-CD123-CD33-CD3; not shown: N-terminal His-tag
B6: DARPin® protein #31 (designed binder)
chain: DLGYKLLQAAYDGQLDEVRILLKAGADVNAKDSRGQTPLHYAASIGHLEIVEVLLKAGADVNAKDDHGWTPLHLAAWSGHLEIVEVLLKAGADVNAQDQEGTTPADLAAVQGHQDIAEVLQKAAGSPTPTPTTPTPTPTTPTPTPTGSDLGKKLLEAALEGQLDEVRELLKAGADVNAKDQEGYTPLHLAAALGHLEIVEVLLKAGADVNAKDSIGRTPLHLAAYKGHLEIVEVLLKAGADVNAQDLLGETPADLAAEQGHQDIAEVLQKAAGSPTPTPTTPTPTPTTPTPTPTGSDLGVKLLRAAVHGQLDEVRILLKAGADVNAKDTDGETPLHYAAQFGHLEIVEVLLKAGADVNAKDAYGATPLHWAAWHGHLEIVEVLLKAGADVNAQDVSGATPADLAAKVGHQDIAEVLQKAAGSPTPTPTTPTPTPTTPTPTPTGSDLGQKLLEAAWAGQDDEVRELLKAGADVNAKNSRGWTPLHTAAQTGHLEIFEVLLKAGADVNAKDDKGVTPLHLAAALGHLEIVEVLLKAGADVNAQDSWGTTPADLAAKYGHEDIAEVLQKAA
notes: CD70-CD123-CD33-CD3; not shown: N-terminal His-tag

The first assay concerns the target T1, biotinylated extracellular domain of …. Briefly: SPR (ProteOn XPR36), target on GLC chip. The text has this:
(§1) For that, DARPin® protein #27, DARPin® protein #29, DARPin® protein #47 and DARPin® protein #48 and DARPin® protein #49, DARPin® protein #50, DARPin® protein #51, DARPin® protein #52, DARPin® protein #31, DARPin® protein #53, DARPin® protein #54, DARPin® protein #55, DARPin® protein #34, DARPin® protein #33, DARPin® protein #39 and DARPin® protein #36 were subcloned and expressed as described above into derivatives of the pQE30 (Qiagen) expression vector, containing an N-terminal His-tag, CD33, CD123 and/or CD70 binding ankyrin repeat domains, followed by a CD3 specific ankyrin repeat domain and for some constructs by a human serum albumin specific ankyrin repeat domain.
(§2) Briefly, biotinylated human CD70, CD123 and CD33 was diluted in PBST (PBS, pH 7.4 containing 0.005% Tween 20®) and coated on a GLC chip (BioRad) to a level of around 200, 460 and 450 resonance units (RU) respectively. HSA in NaOAc pH 5.0 was directly immobilized on the GLC chip to a level of 800 RU. Bio.CD70, bio. CD33 and bio. CD123 required to have Neutravidin coated first to a level of 6000 RU before the biotinylated targets could be applied. The interaction of the selected ankyrin repeat proteins and human CD70, CD123 and CD33 was then measured by injecting 300 μl running buffer (PBS, pH 7.4 containing 0.005% Tween 20®) containing serial dilutions of ankyrin repeat proteins covering a concentration range between 100 nM and 2.6 nM (100, 40, 16, 6.4 and 2.6 nM respectively) for multi-trace SPR measurements, with an association of 120 s and dissociation of 1200 s using a constant flow of 100 μl/min. The regeneration was performed using 30 μl of 4 mM Glycine pH 2. The signals (i.e. resonance unit (RU) values) of the interspots and a reference injection (i.e. injection of running buffer only) were subtracted from the RU traces obtained after injection of ankyrin repeat protein (double-referencing).
Take B1: the binding result is on record as “no binding (tested: 100 nM (highest concentration))”.
Still for that read-out and setting: the entry for B2 is “no binding (tested: 100 nM (highest concentration))”.

In a further assay the target is T2, extracellular domain of human CD70 (SEQ …). Briefly: SPR (ProteOn XPR36), target on GLC chip.
Text: as §1, §2
For B3, the binding result was “no binding (tested: 100 nM (highest concentration))”.
On the same count and under the same terms, the entry for B4 is “no binding (tested: 100 nM (highest concentration))”; for B5 it is “no binding (tested: 100 nM (highest concentration))”.
Turning to B2, the binding result was “no binding (tested: 100 nM (highest concentration))”.

In another assay the target is T3, human serum albumin (human, UniProt P02768 25-609).
T3 construct: also called HSA; SA
T3 sequence (P02768 25-609 limits assumed): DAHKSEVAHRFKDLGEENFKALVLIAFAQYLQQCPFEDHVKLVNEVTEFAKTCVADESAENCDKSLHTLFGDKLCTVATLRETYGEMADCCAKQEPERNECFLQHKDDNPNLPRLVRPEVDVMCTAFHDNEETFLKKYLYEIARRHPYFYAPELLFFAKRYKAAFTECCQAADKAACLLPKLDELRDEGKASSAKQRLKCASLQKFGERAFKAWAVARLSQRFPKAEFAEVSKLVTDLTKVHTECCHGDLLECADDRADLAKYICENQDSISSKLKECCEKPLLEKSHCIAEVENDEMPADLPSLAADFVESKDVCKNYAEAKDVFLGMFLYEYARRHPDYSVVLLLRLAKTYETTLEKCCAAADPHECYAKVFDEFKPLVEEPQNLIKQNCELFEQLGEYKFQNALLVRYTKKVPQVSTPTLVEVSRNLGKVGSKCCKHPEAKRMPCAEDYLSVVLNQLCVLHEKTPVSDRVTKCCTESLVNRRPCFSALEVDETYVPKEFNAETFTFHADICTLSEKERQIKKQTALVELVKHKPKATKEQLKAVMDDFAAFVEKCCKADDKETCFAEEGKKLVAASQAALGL
Briefly: SPR (ProteOn XPR36), target on GLC chip.
Text: as §1, §2
Regarding B6, the binding result was “no binding (tested: 100 nM (highest concentration))”.
For B2, the binding result was “no binding (tested: 100 nM (highest concentration))”.

For a further assay, the target named is T4, biotinylated extracellular domain of human CD33 (SEQ ID NO: 87), Fc and Avi tagged (human, UniProt P20138 18-259, biotinylated with BirA-GST (Avi tag)).
T4 construct: also called hCD33; human target hCD33
T4 sequence (P20138 18-259 R69G): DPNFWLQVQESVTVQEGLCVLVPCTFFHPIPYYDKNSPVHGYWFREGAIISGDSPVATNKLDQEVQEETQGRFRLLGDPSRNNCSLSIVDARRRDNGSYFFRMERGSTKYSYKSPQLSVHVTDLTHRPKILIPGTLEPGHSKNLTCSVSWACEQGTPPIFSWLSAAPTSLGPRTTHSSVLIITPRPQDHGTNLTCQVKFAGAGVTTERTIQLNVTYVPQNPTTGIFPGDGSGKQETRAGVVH
The assay is described as follows: SPR (ProteOn XPR36), target on GLC chip, DARPin as analyte.
Text: as §1, §2
Molecule B3 returned a Kd of 4.2 nM. This lies in the single-digit nanomolar range.
B1 yielded a Kd of 5.7 nM. The Kd values of the last two molecules are within 1.5-fold of each other.
B4 gave a dissociation constant Kd of 6.8 nM.
Molecule B6 yielded a Kd of 11 nM.
Turning to B5, the Kd turned out to be 5.4 nM.
B2 had a Kd of 6.7 nM.

Another assay has as its target T1, biotinylated extracellular domain of …. The assay is described as above.
Text: as §1, §2
Molecule B3 showed a Kd of 5.1 nM.
Same read-out and setting: the figure for B4 is 23 nM.
B6 had an equilibrium dissociation constant (Kd) of 10 nM.
For B5, binding was characterised by a dissociation constant (Kd) of 8 nM. The Kd values of the last two molecules are within 1.5-fold of each other.

The next assay addresses T2, extracellular domain of human CD70 (SEQ …). Described as above.
Text: as §1, §2
Molecule B1 displayed a Kd of 0.27 nM.
B6 displayed a dissociation constant (Kd) of 0.31 nM.

The target in another assay is T3, human serum albumin. The description is as above.
Text: as §1, §2
The molecule B3 had a Kd of 1.1 nM.
In turn, B1 displayed a Kd of 48 nM.
In turn, B4 registered a Kd of 14 nM.
B5 displayed a Kd of 15 nM. The Kd values of the last two molecules are within 1.5-fold of each other.

The record behind these values is patent US20240254229A1 (Molecular Partners, published 2024).
